These results are taken from patent publication US11433099B2, “Immunotherapy with B*08 restricted peptides and combination of peptides against cancers and related methods” (Immatics Biotechnologies GmbH, priority 2018, dated 2022).

The subject of the first assay is CD8+ T cells of healthy HLA-B*08 donors. The assay can be described thus: In vitro T-cell priming assay with aAPCs loaded with peptide/MHC complexes and anti-CD28 antibody, pMHC multimer readout. The assay is classed as cell-based, human. To be noted: Table 10A; in vitro immunogenicity, HLA-B*08 pMHC, healthy donors. The text has this:
In order to obtain information regarding the immunogenicity of the TUMAPs of the present invention, the inventors performed investigations using an in vitro T-cell priming assay based on repeated stimulations of CD8+ T cells with artificial antigen presenting cells (aAPCs) loaded with peptide/MHC complexes and anti-CD28 antibody.
In order to perform in vitro stimulations by artificial antigen presenting cells loaded with peptide-MHC complex (pMHC) and anti-CD28 antibody, the inventors first isolated CD8+ T cells from fresh HLA-B*08 leukapheresis products via positive selection using CD8 microbeads (Miltenyi Biotec, Bergisch-Gladbach, Germany) of healthy donors obtained from the University clinics Mannheim, Germany, after informed consent.
PBMCs and isolated CD8+ lymphocytes were incubated in T-cell medium (TCM) until use consisting of RPMI-Glutamax (Invitrogen, Karlsruhe, Germany) supplemented with 10% heat inactivated human AB serum (PAN-Biotech, Aidenbach, Germany), 100 U/ml Penicillin/100 μg/ml Streptomycin (Cambrex, Cologne, Germany), 1 mM sodium pyruvate (CC Pro, Oberdorla, Germany), 20 μg/ml Gentamycin (Cambrex). 2.5 ng/ml IL-7 (PromoCell, Heidelberg, Germany) and 10 U/ml IL-2 (Novartis Pharma, Nornberg, Germany) were also added to the TCM at this step.
Generation of pMHC/anti-CD28 coated beads, T-cell stimulations and readout was performed in a highly defined in vitro system using four different pMHC molecules per stimulation condition and 8 different pMHC molecules per readout condition.
The purified co-stimulatory mouse IgG2a anti human CD28 Ab 9.3 (Jung et al., 1987) was chemically biotinylated using Sulfo-N-hydroxysuccinimidobiotin as recommended by the manufacturer (Perbio, Bonn, Germany). Beads used were 5.6 μm diameter streptavidin coated polystyrene particles (Bangs Laboratories, Illinois, USA).
800.000 beads/200 μl were coated in 96-well plates in the presence of 4×12.5 ng different biotin-pMHC, washed and 600 ng biotin anti-CD28 were added subsequently in a volume of 200 μl. Stimulations were initiated in 96-well plates by co-incubating 1×10^6 CD8+ T cells with 2×10^5 washed coated beads in 200 μl TCM supplemented with 5 ng/ml IL-12 (PromoCell) for 3 days at 37° C. Half of the medium was then exchanged by fresh TCM supplemented with 80 U/ml IL-2 and incubating was continued for 4 days at 37° C. This stimulation cycle was performed for a total of three times. For the pMHC multimer readout using 8 different pMHC molecules per condition, a two-dimensional combinatorial coding approach was used as previously described (Andersen et al., 2012) with minor modifications encompassing coupling to 5 different fluorochromes. Finally, multimeric analyses were performed by staining the cells with Live/dead near IR dye (Invitrogen, Karlsruhe, Germany), CD8-FITC antibody clone SK1 (BD, Heidelberg, Germany) and fluorescent pMHC multimers. For analysis, a BD LSRII SORP cytometer equipped with appropriate lasers and filters was used. Peptide specific cells were calculated as percentage of total CD8+ cells. Evaluation of multimeric analysis was done using the FlowJo software (Tree Star, Oregon, USA). In vitro priming of specific multimer+CD8+ lymphocytes was detected by comparing to negative control stimulations.
In the case of “283 (MAQFKEISL; listed as Homo sapiens) [compound 283]”, the “Wells positive [%]” value is reported as “++++ (>=70% = ++++)”.
The same measure, in the same setting: the result for “286 (ILLPRTVSL; listed as Homo sapiens) [compound 286]” reads “+ (<20% = +)”.
On the same count and under the same terms, the result for “285 (EAMLRNKEL; listed as Homo sapiens) [compound 285]” reads “+ (<20% = +)”.
Same read-out and setting: then “278 (RAQLKLVAL; listed as Homo sapiens) [compound 278]”, with “+ (<20% = +)”; and “284 (ELKKKEYEEL; listed as Homo sapiens) [compound 284]”, with “+ (<20% = +)”.

Staying with this assay, now noted: in vitro immunogenicity, HLA class I peptides, Table 10B.
With “75 (YARLKNVLL; listed as Homo sapiens) [compound 75]”, the “Wells positive [%]” value is “+++ (50%-69%= +++)”.
For “21 (RILKRFLAC; listed as Homo sapiens) [compound 21]”, the “Wells positive [%]” value is “+ (<20% = +)”.
Still for that read-out and setting: the result for “3 (SIQSRYISM; listed as Homo sapiens) [compound 3]” reads “++ (20%-49% = ++)”; that for “48 (ELALRQTV; listed as Homo sapiens) [compound 48]”, “+ (<20% = +)”.
Still for that read-out and setting: the result for “41 (RGALRTLSL; listed as Homo sapiens) [compound 41]” reads “+ (<20% = +)”.
Consider “11 (MAPLKMLAL; listed as Homo sapiens) [compound 11]”, for which the “Wells positive [%]” value was “+++ (50%-69%= +++)”.
Still for that read-out and setting: then “86 (RPIHHPLVL; listed as Homo sapiens) [compound 86]”, with “+ (<20% = +)”; and “82 (SIRKRPML; listed as Homo sapiens) [compound 82]”, with “+ (<20% = +)”; and “60 (MLHIKKAEV; listed as Homo sapiens) [compound 60]”, with “+ (<20% = +)”.
On the same count and under the same terms, the result for “80 (EVYLRMYQL; listed as Homo sapiens) [compound 80]” reads “+++ (50%-69%= +++)”.

In a further assay the target is HLA-B*08:01 (Homo sapiens, UniProt P01889). The assay can be described thus: MHC binding assay (UV-ligand exchange, beta2m ELISA). The note with it: MHC class I binding score; binding to HLA-B*08:01 ranged by peptide exchange yield (UV-ligand exchange, β2m ELISA). An outline of the steps: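 Peptide–HLA complexes generated by UV-ligand exchange of a UV-cleavable peptide for the test peptide; exchange yield read by β2m ELISA on streptavidin capture (samples diluted 100-fold, 1 h 37 °C), HRP anti-β2m, TMB, A450. Quantified against refolded HLA-A*02:01/MLA-001 monomer standards (15-500 ng/ml).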
Turning to “75 (YARLKNVLL; listed as Homo sapiens) [compound 75]”, the Peptide exchange entry was “+++ (50% = +++)”.
Still for that read-out and setting: the result for “21 (RILKRFLAC; listed as Homo sapiens) [compound 21]” reads “+++ (50% = +++)”; that for “3 (SIQSRYISM; listed as Homo sapiens) [compound 3]”, “+++ (50% = +++)”.
Same read-out and setting: the result for “48 (ELALRQTV; listed as Homo sapiens) [compound 48]” reads “++ (20% = ++)”.
Take “41 (RGALRTLSL; listed as Homo sapiens) [compound 41]”: the Peptide exchange result was “++ (20% = ++)”.
Still for that read-out and setting: then “11 (MAPLKMLAL; listed as Homo sapiens) [compound 11]”, with “+++ (50% = +++)”; and “86 (RPIHHPLVL; listed as Homo sapiens) [compound 86]”, with “++ (20% = ++)”.
Still for that read-out and setting: then “82 (SIRKRPML; listed as Homo sapiens) [compound 82]”, with “++ (20% = ++)”.
The same measure, in the same setting: then “60 (MLHIKKAEV; listed as Homo sapiens) [compound 60]”, with “+++ (50% = +++)”.
As for “80 (EVYLRMYQL; listed as Homo sapiens) [compound 80]”, the Peptide exchange result is “+++ (50% = +++)”.
Still for that read-out and setting: then “150 (MRSSYIREL; listed as Homo sapiens) [compound 150]”, with “++ (20% = ++)”.
The same measure, in the same setting: then “32 (NPYLKLVL; listed as Homo sapiens) [compound 32]”, with “++ (20% = ++)”; and “142 (YNLIYSMCL; listed as Homo sapiens) [compound 142]”, with “+++ (50% = +++)”.
Still for that read-out and setting: the result for “204 (MSPLLRSI; listed as Homo sapiens) [compound 204]” reads “++ (20% = ++)”; that for “104 (FAFGEPREL; listed as Homo sapiens) [compound 104]”, “++ (20% = ++)”.
Consider “24 (DLVLKRCL; listed as Homo sapiens) [compound 24]”, for which the Peptide exchange entry is “++++ (75% = ++++)”.
For “202 (RIPEKASFL; listed as Homo sapiens) [compound 202]”, the Peptide exchange entry is listed as “++ (20% = ++)”.
Still for that read-out and setting: then “119 (FQRVSSVSF; listed as Homo sapiens) [compound 119]”, with “+++ (50% = +++)”.
The same measure, in the same setting: the result for “162 (LFKQTKINL; listed as Homo sapiens) [compound 162]” reads “++ (20% = ++)”.
Take “240 (KVIDRKVEL; listed as Homo sapiens) [compound 240]”: the Peptide exchange result is recorded as “++ (20% = ++)”.
As for “170 (SPANVRGQSL; listed as Homo sapiens) [compound 170]”, the Peptide exchange entry is “++ (20% = ++)”.
In the case of “134 (DQRSRATL; listed as Homo sapiens) [compound 134]”, the Peptide exchange entry is on record as “++ (20% = ++)”.
With “84 (YITRQFVQF; listed as Homo sapiens) [compound 84]”, the Peptide exchange entry is recorded as “++ (20% = ++)”.
Still for that read-out and setting: then “157 (QPYRFPQA; listed as Homo sapiens) [compound 157]”, with “++ (20% = ++)”.
Turning to “93 (LMKEKIQEM; listed as Homo sapiens) [compound 93]”, the Peptide exchange result is “+++ (50% = +++)”.
Still for that read-out and setting: then “95 (SRNPRGFFL; listed as Homo sapiens) [compound 95]”, with “++ (20% = ++)”; and “88 (MLLCLSLEL; listed as Homo sapiens) [compound 88]”, with “++ (20% = ++)”; and “131 (MSTKTTSI; listed as Homo sapiens) [compound 131]”, with “++ (20% = ++)”.
Still for that read-out and setting: the result for “39 (DAKSKIEQI; listed as Homo sapiens) [compound 39]” reads “++ (20% = ++)”; that for “216 (EARPPSPAV; listed as Homo sapiens) [compound 216]”, “++ (20% = ++)”; that for “132 (IPIQAHQI; listed as Homo sapiens) [compound 132]”, “+++ (50% = +++)”.
On the same count and under the same terms, the result for “50 (TLRLLVAAL; listed as Homo sapiens) [compound 50]” reads “+++ (50% = +++)”; that for “174 (HAMPSPRIL; listed as Homo sapiens) [compound 174]”, “++ (20% = ++)”; that for “213 (FPSLFINQF; listed as Homo sapiens) [compound 213]”, “++ (20% = ++)”.
Consider “87 (QILQHHVL; listed as Homo sapiens) [compound 87]”, for which the Peptide exchange result is recorded as “+++ (50% = +++)”.
On the same count and under the same terms, the result for “177 (SVPVRSSPL; listed as Homo sapiens) [compound 177]” reads “++ (20% = ++)”; that for “195 (EGNQKSVI; listed as Homo sapiens) [compound 195]”, “++ (20% = ++)”; that for “168 (HVQDFTAF; listed as Homo sapiens) [compound 168]”, “++ (20% = ++)”.
On the same count and under the same terms, the result for “16 (NRKPRTPF; listed as Homo sapiens) [compound 16]” reads “++ (20% = ++)”.
Same read-out and setting: the result for “55 (VLLSRRTAL; listed as Homo sapiens) [compound 55]” reads “++ (20% = ++)”; that for “59 (FDFRGKTKVF; listed as Homo sapiens) [compound 59]”, “++ (20% = ++)”.
Consider “183 (YVSKPGAQL; listed as Homo sapiens) [compound 183]”, for which the Peptide exchange entry is “++ (20% = ++)”.
On the same count and under the same terms, then “120 (AQRSEMVTL; listed as Homo sapiens) [compound 120]”, with “++ (20% = ++)”; and “125 (FPLVTPLL; listed as Homo sapiens) [compound 125]”, with “+++ (50% = +++)”; and “26 (DARCKLAEL; listed as Homo sapiens) [compound 26]”, with “++ (20% = ++)”.
As to “178 (IPRLAVISI; listed as Homo sapiens) [compound 178]”, the Peptide exchange result is given as “++ (20% = ++)”.
On the same count and under the same terms, then “103 (IANLRVKNI; listed as Homo sapiens) [compound 103]”, with “+++ (50% = +++)”.
